{"source": "paper PMC2827818", "origin": "cited, not measured here", "biological_target": "IFNalpha2 (Homo sapiens) (UniProt P01563)", "data": [{"substance": "IFNAR2 ECD (from UniProt P48551)", "values": [{"measurement": "Kd", "result": 10, "unit": "nM"}]}]}
